Tests used:
[1] = test system: CC(=O)Oc1ccc([N+](=O)[O-])cc1; assay: purified protein; conditions: pH 7, 37°C
[2] = test system: CCC(=O)Oc1ccc([N+](=O)[O-])cc1; assay: purified protein; conditions: pH 7, 37°C
[3] = test system: CCCCCC(=O)Oc1ccc([N+](=O)[O-])cc1; assay: purified protein; conditions: pH 7, 37°C
[4] = test system: CCCC(=O)Oc1ccc([N+](=O)[O-])cc1; assay: purified protein; conditions: pH 7, 37°C
[5] = substrate: CCCC(=O)Oc1ccc([N+](=O)[O-])cc1; assay: pNP release, initial rates, Michaelis-Menten fit; format: biochemical, Rhodopseudomonas palustris; conditions: pH 9, 37°C
[6] = substrate: CCCCCC(=O)Oc1ccc([N+](=O)[O-])cc1; assay: pNP release, initial rates, Michaelis-Menten fit; format: biochemical, Rhodopseudomonas palustris; conditions: pH 9, 37°C
[7] = substrate: CC(=O)Oc1ccc([N+](=O)[O-])cc1; assay: pNP release, initial rates, Michaelis-Menten fit; format: biochemical, Streptomyces avermitilis; conditions: pH 8, 37°C
[8] = substrate: CCC(=O)Oc1ccc([N+](=O)[O-])cc1; assay: pNP release, initial rates, Michaelis-Menten fit; format: biochemical, Pseudomonas putida
[9] = substrate: CC(=O)Oc1ccc([N+](=O)[O-])cc1; assay: pNP release, initial rates, Michaelis-Menten fit; format: biochemical, Pseudomonas putida
[10] = substrate: CCCCCCCCCC(=O)Oc1ccc([N+](=O)[O-])cc1; assay: pNP release, initial rates, Michaelis-Menten fit; format: biochemical, Pseudomonas aeruginosa; conditions: pH 8, 37°C
[11] = substrate: CC(=O)Oc1ccc([N+](=O)[O-])cc1; assay: pNP release, initial rates, Michaelis-Menten fit; format: biochemical, Pseudomonas aeruginosa; conditions: pH 8, 37°C
[12] = substrate: CCCCCC(=O)Oc1ccc([N+](=O)[O-])cc1; assay: pNP release, initial rates, Michaelis-Menten fit; format: biochemical, Pseudomonas aeruginosa; conditions: pH 8, 37°C
[13] = substrate: CCCCCCCCCC(=O)Oc1ccc([N+](=O)[O-])cc1; assay: pNP release, initial rates, Michaelis-Menten fit; format: biochemical, Pseudomonas putida; conditions: pH 8, 37°C
[14] = substrate: CCCCCC(=O)Oc1ccc([N+](=O)[O-])cc1; assay: pNP release, initial rates, Michaelis-Menten fit; format: biochemical, Pseudomonas putida; conditions: pH 8, 37°C
[15] = substrate: CCC(=O)Oc1ccc([N+](=O)[O-])cc1; assay: pNP release, initial rates, Michaelis-Menten fit; format: biochemical, Rhodopseudomonas palustris; conditions: pH 9, 37°C
[16] = substrate: CC(=O)Oc1ccc([N+](=O)[O-])cc1; assay: pNP release, initial rates, Michaelis-Menten fit; format: biochemical, Rhodopseudomonas palustris; conditions: pH 9, 37°C

Molecule: RpEST-1 (Rhodopseudomonas palustris CGA009)
- Km [1]: 300 ± 0 µM
- kcat [1]: 65.6 ± 1.5 s⁻¹
- kcat/Km [1]: 219000 M⁻¹ s⁻¹
- Km [2]: 1500 ± 100 µM
- kcat [2]: 307 ± 15.3 s⁻¹
- kcat/Km [2]: 205000 M⁻¹ s⁻¹
- Km [3]: 1900 ± 100 µM
- kcat [3]: 217 ± 11.8 s⁻¹
- kcat/Km [3]: 114000 M⁻¹ s⁻¹
- Km [4]: 500 ± 0 µM
- kcat [4]: 75.5 ± 1.6 s⁻¹
- kcat/Km [4]: 151000 M⁻¹ s⁻¹

B1: RpEST-3 (Rhodopseudomonas palustris CGA009) (protein)
chain: MPSFDHAGVNIAYLDEGEGEPILLIHGFASNKNVNWVYPSWLSELKRTGRRVIAIDNRGHGESSKLYDPNDYTLEAMASDAVALMDHLGIARADVMGYSMGARIGANLARRQEQRVRSVVLGGLGMGLLSNEGRPGENVARALEADALDDVTDPVGRTFRAFADQTRSDRKALAACMRGSRGLMSREDAAQIAVPVLIAVGTDDDVAGSAHELGDIIPGSQVLDIPRRDHMRAVGDRVYKEGVVDFLARRP
- Km [5]: 3600 ± 400 µM
- kcat [5]: 7.2 ± 0.7 s⁻¹
- kcat/Km [5]: 2000 M⁻¹ s⁻¹
- Km [6]: 2100 ± 300 µM
- kcat [6]: 5 ± 0.4 s⁻¹
- kcat/Km [6]: 2400 M⁻¹ s⁻¹

B2: SavEST-1 (Streptomyces avermitilis MA-4680 = NBRC 14893) (protein)
chain: MTSQHVVGRFFDVQGGQVYAHVREGDGPALIFLHYWGGSRRTWIPVLQRLDPGQGFVAYDQRGWGGSTSVPGPYDLEQLADDAQRVVDALGYSRYVLVGHSMGGKVAQILAARKPAGLRGVVLVAPAPPAPIGVTEQVQETVSHAYDNEEAVLQSIDLMLTRGGLTPELRRQVVEDSLRGGDEARLEWPRRGLVQDVSAGVSAIEVPVLVLAGSHDKVDPPTVLADHLLPLIPTATLTVLKDTGHLSPLEVPDQVAAHIGAFVAQL
- Km [7]: 300 ± 0 µM
- kcat [7]: 2.9 ± 0.1 s⁻¹
- kcat/Km [7]: 9500 M⁻¹ s⁻¹

B3: PpEST-1 (Pseudomonas putida KT2440) (protein)
chain: MRNRLVLLPGWGLGTAALEPLAASLRAQDARLQVELMPLPELAHSDVQAWIDHLDRKLPNDVWLGGWSLGGMLASALAHKRGDHCCGLLTLASNPSFLARPDWPHGMAEDTFGTFLDGCRNHTQVTLKRFRTLCSDGALQPRTLLRQLGVGVPETDPLYLATGLEVLAKLDTREALQAYDGPQLHLFAGSDALVPAEAAKALSELLPDVEVGMVEDSSHAFLLEYPQELAAGIKSFLHESGDD
- Km ([8]; pH 8, 37°C): 3000 ± 400 µM
- kcat ([8]; pH 8, 37°C): 3.1 ± 0.3 s⁻¹
- kcat/Km ([8]; pH 8, 37°C): 1000 M⁻¹ s⁻¹
- Km ([9]; pH 8, 37°C): 1400 ± 100 µM
- kcat ([9]; pH 8, 37°C): 3.9 ± 0.2 s⁻¹
- kcat/Km ([9]; pH 8, 37°C): 2800 M⁻¹ s⁻¹

B4: PpEST-2 (Pseudomonas putida KT2440) (protein)
chain: MSTFVTRDGTSIYFKDWGSGKPVLFSHGWPLDADMWDSQMEFLASRGYRAIAFDRRGFGRSSQPWNGYDYDTFADDIAQLIEHLDLRDVTLVGFSMGGGDVSRYIARHGSERVAGLVLLGAVTPVFGKRDDNPDGVDLSVFEGIRAGLRADRAQFIADFATPFYGLNHGQQVSQGVQTQTLNIALMASIKGTLDCVTAFSETDFRPDMAKVDVPTLVIHGDDDQIVPFETTGKQAAELIRGAELKVYAGAPHGFAVTHAQQLNEDLLAFLQR
- Km ([8]; pH 9, 37°C): 1000 ± 100 µM
- kcat ([8]; pH 9, 37°C): 3 ± 0.1 s⁻¹
- kcat/Km ([8]; pH 9, 37°C): 3000 M⁻¹ s⁻¹
- Km ([9]; pH 9, 37°C): 1100 ± 100 µM
- kcat ([9]; pH 9, 37°C): 12.5 ± 0.5 s⁻¹
- kcat/Km ([9]; pH 9, 37°C): 11400 M⁻¹ s⁻¹

B5: PaEST-1 (Pseudomonas aeruginosa) (protein)
chain: MKRFLLGLVLLLAVAAGVLYFVPATLLASVRTVERGLAGLSEHSVQVDNLEIAYLEGGSEKNPTLLLIHGFGADKDNWLRFARPLTERYHVVALDLPGFGDSSKPQQASYDVGTQAERVANFAAAIGVRRLHLAGNSMGGHIAALYAARHPEQVLSLALIDNAGVMPARKSELFEDLERGENPLVVRQPEDFQKLLDFVFVQQPPLPAPLKRYLGERAVAASAFNAQIFEQLRQRYIPLEPELPKIEAPTLLLWGDRDRVLDVSSIEVMRPLLKRPSVVIMENCGHVPMVERPEETAQHYQAFLDGVRNAQVAGR
- Km [10]: 1200 ± 200 µM
- kcat [10]: 9.2 ± 1 s⁻¹
- kcat/Km [10]: 7600 M⁻¹ s⁻¹
- Km [11]: 1400 ± 200 µM
- kcat [11]: 1.9 ± 0.2 s⁻¹
- kcat/Km [11]: 1300 M⁻¹ s⁻¹
- Km [12]: 1400 ± 400 µM
- kcat [12]: 12.9 ± 2.4 s⁻¹
- kcat/Km [12]: 9200 M⁻¹ s⁻¹

B6: PpEST-3 (Pseudomonas putida KT2440) (protein)
chain: MIQPVAERTPAGTSYLDVGQGQPVVLIHGVGLNKEMWGGQFVGLANDYRVIAYDMLGHGQSRVPAADTPLEGYADQLAELLDHLQIAQATVIGFSMGGLVARAFALNYPQRLAALVVLNSVFNRTPEQSAGVIARAAQAAELGPDANVDAALDRWFSREYKAANPAQVAAIRQVLASNDPQGYHTTYSLFATQDMYRADDLGSIQVPTLIATGELDSGSTPAMTRQLAACIPGARSVVLAEQRHMMPVEAPREVNKMLLDFLTQARTLTESAKGIVA
- Km [13]: 800 ± 100 µM
- kcat [13]: 8.7 ± 0.4 s⁻¹
- kcat/Km [13]: 10900 M⁻¹ s⁻¹
- Km ([8]; pH 8, 37°C): 100 ± 0 µM
- kcat ([8]; pH 8, 37°C): 6.8 ± 0.1 s⁻¹
- kcat/Km ([8]; pH 8, 37°C): 67900 M⁻¹ s⁻¹
- Km ([9]; pH 8, 37°C): 1000 ± 100 µM
- kcat ([9]; pH 8, 37°C): 6.2 ± 0.3 s⁻¹
- kcat/Km ([9]; pH 8, 37°C): 6200 M⁻¹ s⁻¹
- Km [14]: 200 ± 0 µM
- kcat [14]: 12.1 ± 0.3 s⁻¹
- kcat/Km [14]: 60400 M⁻¹ s⁻¹

B7: RpEST-2 (Rhodopseudomonas palustris CGA009) (protein)
chain: MSEAVMAGAEAFAFDGGKTGVLLVHGFTGSPQSMRYLGERLGERGYSILGPRLPGHGVSPAAMAKTTANDWVNCAEDALLELSAKCDKTFVAGLSMGGTLSLYLAASHPDKVAGVIPINAAVQIDSPDLAGLAYARGLPEFVPGIGSDMVDTSTKELAYDQVPVTCVKQVMGLAATARALLPRIKCPTLVINSRVDHVLSPANATVIANHVGSSRIETLWLDNSYHVATIDNDKDLIAAEIDSFVTRNL
- Km [15]: 4900 ± 1800 µM
- kcat [15]: 24.4 ± 7.8 s⁻¹
- kcat/Km [15]: 4900 M⁻¹ s⁻¹
- Km [16]: 1400 ± 200 µM
- kcat [16]: 52.7 ± 4.3 s⁻¹
- kcat/Km [16]: 37600 M⁻¹ s⁻¹
